No end group written: not given here.

For the assay, the target named is T1, NMT1 (115–496), NMT catalytic domain (human, UniProt P30419 115-496).
T1 construct: human N-myristoyltransferase 1, catalytic domain, residues 115-496; Crystallised with myristoyl-CoA; also called N-myristoyltransferase 1; source: E. coli BL21, purified (Ni-NTA, PreScission cleavage, Superdex 75)
T1 sequence (looked up): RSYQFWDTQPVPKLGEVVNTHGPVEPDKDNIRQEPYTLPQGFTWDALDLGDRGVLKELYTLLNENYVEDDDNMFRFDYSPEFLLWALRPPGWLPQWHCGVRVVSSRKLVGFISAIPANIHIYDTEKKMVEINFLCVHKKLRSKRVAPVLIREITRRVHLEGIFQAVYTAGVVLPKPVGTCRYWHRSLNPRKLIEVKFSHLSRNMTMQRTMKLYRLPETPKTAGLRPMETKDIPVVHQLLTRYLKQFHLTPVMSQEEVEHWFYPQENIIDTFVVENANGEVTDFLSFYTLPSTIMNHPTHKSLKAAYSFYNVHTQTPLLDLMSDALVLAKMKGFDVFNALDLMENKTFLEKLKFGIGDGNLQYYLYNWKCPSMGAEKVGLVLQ
In words: crystal structure; NMT1 7.5 mg/ml in 25 mM Tris-HCl pH 7.5, 120 mM NaCl, with 0.3 mM myristoyl-CoA and 0.3 mM AcKVLSKIF; well 18% PEG 8000, 100 mM NaCl, 100 mM sodium citrate pH 5.6, 100 mM MgCl2. Particulars: both partners purified.

B1: Ac-KVLSKIF peptide (peptide)
peptide: Ac-KVLSKIF
modifications: also: myristoyl on Lys3 side chain (residue 3 is L), formed in crystal
notes: derived from the N-terminus of ARF6, G2 deleted; also called acetyl-KVLSKIF; myristoyl-AcKVLSKIF; source: synthetic peptide (synthesized in-house)
For B1, the binding result was “binds”.

Values taken from publication PMC7044312, “NMT1 and NMT2 are lysine myristoyltransferases regulating the ARF6 GTPase cycle” (Nature Communications, 2020).
